The source of these data is patent US10030233B2, “Modified P450 reductase with N-terminal deletions and endoplasmic reticulum retention tag” (DE MONTFORT UNIVERSITY, priority 2013, dated 2018).

Data set [1] deals with CYP. Briefly: CYP specific activity on co-expression of a CYP with the reductase. Format: biochemical. The note with it: co-expressed with a CYP. From the text:
The activity of cytochrome P450 may be measured by the EROD assay or by other assays known in the art. The expression of cytochrome P450 may be measured using CO-difference spectra as is known in the art and is described in the examples herein.

In data set [2] the test system is yeast cells. Briefly: Dihydroethidium assay for ROS detection in yeast cells expressing a P450 reductase. The note with it: gene synthesized using yeast-biased codons compared with ΔN1hRD-M gene isolated from human liver cDNA library; FIG. 13. Type of data set: cell-based, Saccharomyces cerevisiae. The procedure:
The reactive oxygen species generated in yeast cells due to expression of a P450 reductase were assessed using dihydroethidium fluorescence assay. Reactive oxygen species reacts with dihydroethidium to produce ethidium bromide which binds to the nuclear DNA and emits red fluorescence. Dihydroethidine is one of the best reagents available for measuring intracellular production of reactive oxygen species. After overnight induction of a P450 reductase, the cultures were analysed for induction of reactive oxygen species. The control (wt-hRD) and test (ΔN1hRD-M, ΔN1hRD-HDEL, ΔN2hRD-HDEL) yeast cultures were washed in sterile PBS and then incubated with dihydroethidium (5 μM final concentration) for 30 min. After washing with sterile PBS twice (to remove the extracellular dye), the samples were transferred into 96-well black plates with transparent bottom (COSTAR®). Fluorescence was measured using a BIO-TEK® plate reader. Excitation and emission wavelengths were 260 and 610 nm respectively. The percent induction in the formation of reactive oxygen species was calculated by comparing with cultures where genes were not induced.

Data set [3] can be described thus: MTT-based cytochrome P450 reductase assay on yeast microsomes. Type of data set: biochemical. The settings on record: relative to hRD = 1; 100 μg yeast microsomes, A610. From the text:
The enzyme NADPH-cytochrome P450 reductase mediates the transfer of electrons from NADPH to cytochrome P450, other microsomal proteins and cytochrome c. It also catalyses the reduction of many drugs and other compounds such as potassium ferricyanide, 2,6-dichloroindopheonl, 1,1-diphenyl-2-picrylhydrazyl (DPPH), and mitomycin c. Tetrazolium salts are used extensively in cell proliferation and cytotoxicity assays, enzyme assays, histochemical procedures and bacteriological screening. […] The compound 3-(4,5-dimethylthiazol-2-yl)-2,5-diphenyltetrazolium bromide (MTT) is a monotetrazolium salt. The reduction of MTT is one of the most frequently used methods for measuring cell proliferation and cytotoxicity. Reduction of MTT by P450 reductase has been assessed as a method for monitoring yeast produced recombinant P450 reductase activity and the protocol was developed on the procedure published by Yim S-K, et al (Yim S-K., Y. C.-H. Ahn T., Hung H-C and Pan J-G. A continuous Spectrophotometric assay for NADPH-cytochrome P450 reductase activity using 3-(4,5 Dimethylthiazol-2-yl)-2,5-diphenyltetrazolium Bromide. Journal of Biology and Molecular Biology 38: 366-369, 2005). The principal advantage of this substance is that the reduction of MTT can be assayed directly in the reaction medium by a continuous spectrophotometirc method. The electrons released from NADPH by P450 reductase are transferred to MTT, and then the amounts of reduced MTT is assessed spectrophotometrically by measuring the increase in A610 values that is due to the formation of blue formazan. The extinction coefficient of MTT is 11.3 mM^−1 cm^−1. This method offers the advantages of short analysis time with the use of a relatively cheap commercial substrate. The classical assay uses recombinant cytochrome c as a substrate. […]
Disposable cuvettes were used for this experiment. […] The cuvette was quickly placed into the spectrophotometer together with the blank cuvette and its contents (that contained all components as in the other test cuvette but not the microsomes or cell supernatant) and the increase in the values at 610 nm was measured for a time period of 400 seconds. The electrons released from NADPH by recombinant P450 reductase enzyme were transferred to MTT, and the ability to reduce MTT was assessed spectrophotometrically by measuring the increase in A610 values as a result of the formation of blue formazan. The rate of MTT reduction was calculated from the change in A610 values using an extinction coefficient of 11.3 mM^−1 cm^−1 and the formula, ΔA610/min/11.3*0.1 mg/ml=μmole reduced MTT/min/mg of protein.

In data set [4] the target is T1, CYP1A2 (Homo sapiens, UniProt P05177).
T1 construct: A 1563 bp BamHI-XhoI fragment containing the human CYP1A2 gene; made in house; host or cells: Saccharomyces cerevisiae W303B, microsomes
T1 sequence (P05177 1-516): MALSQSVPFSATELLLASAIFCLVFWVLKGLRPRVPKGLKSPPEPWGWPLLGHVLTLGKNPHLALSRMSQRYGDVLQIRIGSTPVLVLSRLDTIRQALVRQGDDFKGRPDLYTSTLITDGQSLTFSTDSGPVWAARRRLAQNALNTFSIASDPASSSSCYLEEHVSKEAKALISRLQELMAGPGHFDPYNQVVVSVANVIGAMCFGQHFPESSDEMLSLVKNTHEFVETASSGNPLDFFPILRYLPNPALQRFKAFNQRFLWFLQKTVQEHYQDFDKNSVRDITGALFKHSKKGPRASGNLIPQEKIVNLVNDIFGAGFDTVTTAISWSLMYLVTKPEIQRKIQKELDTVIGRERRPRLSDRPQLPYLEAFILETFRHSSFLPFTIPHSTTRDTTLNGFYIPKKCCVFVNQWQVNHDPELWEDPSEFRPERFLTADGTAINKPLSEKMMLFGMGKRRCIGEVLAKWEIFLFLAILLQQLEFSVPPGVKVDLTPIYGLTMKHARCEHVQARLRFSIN
Type of data set: biochemical.

B1: ΔN1hRD-M: human P450 reductase lacking N-terminal 24 amino acids, with C-terminal 12-amino acid c-myc tag; described in WO 2007/129050; gene SEQ ID NO: 5 (protein)
chain: MTDMILFSLIVGLLTYWFLFRKKKEEVPEFTKIQTLTSSVRESSFVEKMKKTGRNIIVFYGSQTGTAEEFANRLSKDAHRYGMRGMSADPEEYDLADLSSLPEIDNALVVFCMATYGEGDPTDNAQDFYDWLQETDVDLSGVKFAVFGLGNKTYEHFNAMGKYVDKRLEQLGAQRIFELGLGDDDGNLEEDFITWREQFWPAVCEHFGVEATGEESSIRQYELVVHTDIDAAKVYMGEMGRLKSYENQKPPFDAKNPFLAAVTTNRKLNQGTERHLMHLELDISDSKIRYESGDHVAVYPANDSALVNQLGKILGADLDVVMSLNNLDEESNKKHPFPCPTSYRTALTYYLDITNPPRTNVLYELAQYASEPSEQELLRKMASSSGEGKELYLSWVVEARRHILAILQDCPSLRPPIDHLCELLPRLQARYYSIASSSKVHPNSVHICAVVVEYETKAGRINKGVATNWLRAKEPAGENGGRALVPMFVRKSQFRLPFKATTPVIMVGPGTGVAPFIGFIQERAWLRQQGKEVGETLLYYGCRRSDEDYLYREELAQFHRDGALTQLNVAFSREQSHKVYVQHLLKQDREHLWKLIEGGAHIYVCGDARNMARDVQNTFYDIVAELGAMEHAQAVDYIKKLMTKGRYSLDVWSSSEQKLISEEDLNGSRL
modifications: delN1hRD-M
Regarding B1, in data set [1], the CYP specific activities result is “higher CYP specific activities”. Also, the ROS produced entry in data set [2] was “far less ROS”. For the same molecule, the “μM of reduced MTT/min/mg of protein (Relative Rates)” value in data set [3] was 2.5 ± 10%. Further, in data set [4], the “pmoles of CYP1A2/mg of total protein (Relative Amounts)” value turned out to be 4 ± 10%.
